Data taken from patent publication WO2007088823A1 (dated 2007).

Target: T1, Recombinant Human TNF-α (Strathmann Biotec AG, hTNFa-1000, Lot 090590) (human, UniProt P01375 77-233)
T1 construct: Bought protein; runs at 17.0 kDa on SDS-PAGE; also called cachectin
Assay: ELISA, hybridoma culture supernatant on coated proteins (cross-reactivity test)

T1 sequence (P01375 77-233 limits assumed): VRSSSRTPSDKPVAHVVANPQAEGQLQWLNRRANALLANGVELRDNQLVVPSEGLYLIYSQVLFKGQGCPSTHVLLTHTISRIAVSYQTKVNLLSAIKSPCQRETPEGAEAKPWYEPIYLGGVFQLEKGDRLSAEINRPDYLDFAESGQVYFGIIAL

binding result: binds
B1: ETNF-6 antibody (antibody, V domains shown)
VH: EVQLQQSGPELVKPGASVKISCKASGYSFTAFYMHWVKQSHVKSLEWIGRINPYNGATSYNQNFKAKASLTVDKSSSTAYMELHSLTSEDSAVYYCARSEDWDKTMDYWGQGTSVTVS
VL: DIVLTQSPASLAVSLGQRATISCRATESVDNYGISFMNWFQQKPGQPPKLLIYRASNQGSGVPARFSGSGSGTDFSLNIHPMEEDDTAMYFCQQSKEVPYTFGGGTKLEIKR
notes: Mouse monoclonal antibody, tested as hybridoma culture supernatant; also called ETNF 6 monoclonal antibody
